# Measured values: patent publication US20030191054A1
# Experiments:
# [1] = molecular target: purified recombinant BAG-2 (SEQ ID NO:4) (human); experiment: surface plasmon resonance (BIAcore), BAG protein immobilized
# [2] = molecular target: purified recombinant BAG-1 (beginning at residue 116 of SEQ ID NO:2) (human); experiment: as above
# [3] = molecular target: purified recombinant BAG-3 (SEQ ID NO:6) (human); experiment: as above
# [4] = molecular target: purified recombinant BAG-2 (SEQ ID NO:4) (human); experiment: surface plasmon resonance (BIAcore), KD=Kd/Ka
# [5] = molecular target: purified recombinant BAG-1 (beginning at residue 116 of SEQ ID NO:2) (human); experiment: surface plasmon resonance (BIAcore), KD=Kd/Ka
# [6] = molecular target: purified recombinant BAG-3 (SEQ ID NO:6) (human); experiment: surface plasmon resonance (BIAcore), KD=Kd/Ka
substance,measurement,setting,value
Hsc70 in the soluble phase of the BIAcore assay,koff,[1],0.0005 s⁻¹
same,kon,[1],210000 M⁻¹ s⁻¹
same,koff,[2],0.0003 s⁻¹
same,kon,[2],210000 M⁻¹ s⁻¹
same,koff,[3],0.0017 s⁻¹
same,kon,[3],240000 M⁻¹ s⁻¹
same,Kd,[4],2.4 nM
same,Kd,[5],1.4 nM
same,Kd,[6],7.4 nM
